{
  "source": "a protein production outcome set (Wang et al. 2014)",
  "data": [
    {"experiment": "label from the status in PepcDB records", "values": [
      {"sequence": "MSPAPPRGPGMSQARSLSLILAAVLASLLPVTGSQAGEPGRALWVMSYNIRYDNPDDRPDWRTRRGPMVEQIRFFAPDILGLQEALPAMVDQLAGDLAGYAHYGVGRDDGARLGETTTIFYRAERFQRVLARTYWCSPTPDTPSKAYDAALPRTFTRLVLKDRITGVTFDVRNAHLDHVGAESRAKCAAQILALAPWPKARLITLGDFNSAPEEAPYRLLTAPEGPYRDARAAASSVFSPSTGTFNRFTPASIGPPIDYIFVDRRLNVARFAVPTDVADAGVISDHFPVLAEITLSPKTRAKAKP", "protein production": "failed"},
      {"sequence": "MSPGPQSGGQERGSMERKMVELEDTGLTFATEVDLERLQALAAEWLQVIGEDPGREGLLKTPERVAKAWAFLTRGYRQRLEEVVGGAVFPAEGSEMVVVKGVEFYSMCEHHLLPFFGKVHIGYIPDGKILGLSKFARIVDMFARRLQVQERLAVQIAEAIQEVLEPQGVGVVVEGVHLCMMMRGVEKQHSRTVTSAMLGVFRENQKTREEFLSHLRDGTA", "protein production": "not failed"},
      {"sequence": "MSPIALARLLTLAAVWGASFLFMRIIAPELGTVPTAFFRVSIACLGLIVILAAARVRWNFQGKLGACLVLGMINSGIPATFYSVAAQVLPAGYSAIFNATTPLMGVLVGVLFFREPMTLAKLCGIFLGLFGVGILSGAGPVALDMALLQGALACLAATTCYGFAGFLARRWISGLDSRLSALGSMLGATLMLTPLFGWSALTQPPASWGGWEVWLSLLGLGLLCTAFAYILYFRLLEEIGPVKASTVTFLIPVFGVLWGAWLLNEPLSMAHLYGGLLIGLALWLVLRPARS", "protein production": "failed"},
      {"sequence": "MSPIEHAVISAAGIGSRLGLNKPKCLVEVGGKTLLAQHLERLAEIPNVWVVVGFQEELVIEQVRNLRRDAIIVRNPDFDRTNTLQSIHRVSRYLDRRFLAVDGDTFIENRSFERFLRAAAGQAGLIGVSRYTTSDGVRVLLDAGGEAVTAFTREPQHAYEWTGIAILRPDMVVDRPIYVYQALEPYLPLPAQELDAFDIDTASDLDMARRVHLNNWNLND", "protein production": "failed"},
      {"sequence": "MSPIILSITIIAYFMILFAISYIAGHKADNEGFFVGNRKSAWYIVAFAMIGSTISGVTFVSVPGMVQASGFSYLQMVLGFIVGQFIIAFILVPLFYRMNLVSIYEYLENRFGASSYKTGAWFFFISKMLGAAVRLFLVCLTLQLLIFEPFHIPFIINVILTVLIVWLYTFRGGVKSLIWTDVLKTFCLVVSVVLCIYYIASSLHLNFSGLVSTISDNDLSKMFFFDDVNDKRYFFKQFLAGVFTVIAMNGLDQDMMQRNLSCKNFRDSQKNMITSGISQFFVILLFLMLGVLLYTFTARQGIENPGKSDELFPMIATGNYFPGIVGILFIIGLIASAYSAAGSALTALTTSFTVDILNAHKKDEAALSKIRKHVHIGMAFVMGIVIFVFNLLNNTSVIDAIYTLASYTYGPILGLFAFGIFTKKQVYDPYIPLVAILSPALCYVLQRNSEAWFDGYQISYELLILNAAFTFLGLCLLIKRKSSVAPINNSLIKKH", "protein production": "failed"},
      {"sequence": "MSPKKDKFLDNAQKFLVKGQLDRALREYEQAVAIDPKDVRVRQKYAELLVRANRKDDALKEFEVIGKYYSDNGFYLKAIAVYKQIQKLTPSNLDISLTLGALNEKQGLIGNALAEYKFVFDHYERSNRFIDAVAVLEKMLAADRDNLNIRLKLAETRHRANLIDDAYHDYTELARELRSKGDNAAYTRVCERIASMFPDRKDFLLTVAENQIRDGKAAAAIPVLKQIVGDDRWNPKALYLLADAARAVADPAMVKGAYGQIIKRFPGEITAIKGFLFSLKAEGNVDEAVRVLRHVEPELIKAEPETLEQFYLSFRDLSPDHPGIAEGLLRIRGTAGVDEPEPMVEQVPDVAEPEKEADFAPQPEESDSVMEEPPAEDIPWEEEIDISFDSDGASVEGNRPTEGEASESPSFLHDEGMSLVEADESPIRFDDSSEEETREVEVELADFSSITPDWLDGVPDSAMDKPGETTFSEGLSLDFTDGELEDVIPPPPLDSPMPKPDKYGLDGLFSAFKKGVGEQLTQDDTESHYSLGIAYKEMGLFDDAIVEFQSAARDPRRLADCITLQGICSREKGDPAKAEEYFRSGLAVEGLNREERLCLTYELALLYEMIGDRTRALAGYREALALNPGFRDVAQKIAILRSDGDTHDAADLELLDLDEVEEGAG", "protein production": "failed"},
      {"sequence": "MSPMSRAGTTVMRRIILMLIYCCLGTGLAGCDYTLREAAIVAPVDPPGGDPVQEPTDVKYYPSDEPVRLGLEHFNRGSYGLSQRYFKDAVEKSPKDLTAWIGLAASYDRLRRFDLADQAYAQAIRLGGETVQILNDQGYSYMLRGNLSAARRKFEKAYSLDPGNPVIANNLELLNGSRRFIERPPNNQP", "protein production": "failed"},
      {"sequence": "MSPPLDHAWIAARIPHSGAMCLLDQVVTWDDTHIRCTTTSHRAPDNPLRAHGRLAAVCGIEYAAQAMAVHGAILGNAQDRPRAGFLASVRSVEAHVERLDTIEAPLTIEAERIGGDGNNVLYRFSVRCGERVLLTGRAAVVLDAAGLGLPDAGALAKANAQARLEHHHHHH", "protein production": "failed"},
      {"sequence": "MSPTSMYIAWGWKDIIPQLPALIHAFQTSEMNTPKMRRLCKFTALPEAMNNIGDRSDVYSFRIFLGTIITVKVSYETLDRLTARHTSLRCYRVACLRIKYAYYTNNNASPGHSFNIKLNIDTGVKGSI", "protein production": "failed"},
      {"sequence": "MSQAIPSSRVGVKINEWYKMIRQFSVPDAEILKAEVEQDIQQMEEDQDLLIYYSLMCFRHQLMLDYLEPGKTYGNRPTVTELLETIETPQKKLTGLLKYYSLFFRGMYEFDQKEYVEAIGYYREAEKELPFVSDDIEKAEFHFKVAEAYYHMKQTHVSMYHILQALDIYQNHPLYSIRTIQSLFVIAGNYDDFKHYDKALPHLEAALELAMDIQNDRFIAISLLNIANSYDRSGDDQMAVEHFQKAAKVSREKVPDLLPKVLFGLSWTLCKAGQTQKAFQFIEEGLDHITARSHKFYKELFLFLQAVYKETVDERKIHDLLSYFEKKNLHAYIEACARSAAAVFESSCHFEQAAAFYRKVLKAQEDILKGRVFICLLRKKVMMCLAVTLVFGSMSFPTLTNSGGFKESTDRNTTYIDHSPYKLSDQKKALS", "protein production": "failed"},
      {"sequence": "MSQDLIRAAFEKRLSDWAKARTPALPVAWQNTKFTPPAAGVYLRAYVMPAATISRDAAGDHRQYRGVFQVNVVMPIGDGSRSAEQVAAELDALFPVNLVMQSGGLAVRVRTPISNGQPTTGDADHTVPISLGYDVQFYPE", "protein production": "not failed"},
      {"sequence": "MSQDRIAGIDVATNSTDISNIINEMIICIKGKQMPEVHEKAMDHLSKMIAANSRVIRDSNMLTERECVQKIMKLLSARYKKEEGKTVSDHFNELYRKLTLTKCDPHMRHSLMTHLLTITDNSDAEKAVASEDPRTQCDNLTQILVSRLNSISSSIASLNEMGVVNGNGVGAAAVTGAAAVTGAAAVTGAAAVTGAAASHSYDATQSSIGLRKQSLPNYLDATKMLPESRHDIVMSAIYSFTGVQGKYLKKDVVTGRFKLDQQNIKFLTTGQAGMLLRLSELGYYHDRVVKFSDVSTGFNAIGSMGQALISKLKEELANFHGQVAMLHDEMQRFRQASVNGIANKGKKDSGPDAGDEMTLFKLLAWYIKPLHRMQWLTKIADACQVKKGGDLASTVYDFLDNGNDMVNKLVEDFLTAICGPLVRMISKWILEGGISDMHREFFVKSIKDVGVDRLWHDKFRLRLPMLPKFVPMDMANKIFMTGKSINFLREICEEQGMMKERDELMKVMESSASQIFSYTPDTSWHAAVETCYQQTSKHVLDIMVGPHKLLDHLHGMRRYLLLGQGDFISILIENMKNELERPALDIYANDLTSMLDSALRCTNAQYDDPDILNHLDVIVQRPFNGDIGWNIISLQYIVHGPLAAMLESTMPTYKVLFKPLWRMKHMEFVLSMKIWKEQMGNAKALRTMKSEIGKASHRLNLFTSEIMHFIHQMQYYVLFEVIECNWVELQKKMQKATTLDEILEAHEKFLQTILVGCFVSNKASVEHSLEVVYENIIELEKWQSSFYKDCFKELNARKELSKIVEKSEKKGVYGLTNKMILQRDQEAKIFAEKMDIACRGLEVIATDYEKAVSTFLMSLNSSDDPNLQLFGTRLDFNEYYKKRDTNLSKPLTFEHMRMSNVFAVNSRFVICTPSTQE", "protein production": "failed"}
    ]}
  ]
}
